# Assays:
# Nectin-4 = target: T1, Nectin-4 (Homo sapiens, UniProt Q96NY8); assay: Binding activity with Nectin-4
# T1 sequence (Q96NY8 32-510): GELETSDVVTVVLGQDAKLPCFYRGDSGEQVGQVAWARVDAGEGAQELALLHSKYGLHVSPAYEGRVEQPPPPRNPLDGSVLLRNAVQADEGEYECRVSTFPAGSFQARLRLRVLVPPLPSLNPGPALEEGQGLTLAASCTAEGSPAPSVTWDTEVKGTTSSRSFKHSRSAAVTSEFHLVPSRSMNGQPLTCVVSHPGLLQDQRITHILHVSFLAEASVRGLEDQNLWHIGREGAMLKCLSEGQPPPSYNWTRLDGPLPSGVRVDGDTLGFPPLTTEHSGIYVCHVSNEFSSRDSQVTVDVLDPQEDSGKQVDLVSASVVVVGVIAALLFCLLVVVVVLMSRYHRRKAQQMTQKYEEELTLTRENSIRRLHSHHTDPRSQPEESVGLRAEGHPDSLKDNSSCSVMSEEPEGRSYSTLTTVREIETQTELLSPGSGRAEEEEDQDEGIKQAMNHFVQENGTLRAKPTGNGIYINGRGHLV
# HCC1954 = assay: Cell killing activity; format: cell-based
# OVCAR3 = assay: Cell killing activity; format: cell-based
# CHOK1 = assay: Cell killing activity; format: cell-based
# [1] = Comparative study of toxicity in BALB/c mice; format: in vivo
# Method: (§1) Test 1: 18 BALB/c mice, female, with body weights of 16 to 19 g at the time of grouping, were divided into a PR-ADC group (CDCP1A9-DL01-MMAE, 140 mg/kg) and a conventional ADC group (CDCP1A6-DL01-MMAE, 100 mg/kg), both at equimolar doses, with 9 mice in each group (5 for toxicology + 4 for toxicokinetic (TK)), for a total of 2 groups. A single dose was administered, with a dosing volume of 10 mL/kg. The drug-related toxic effects in BALB/c mice for each group were investigated and compared through aspects such as death, clinical observation, body weight, and toxicokinetic detection. The experiment lasted for 14 days.
# (§2) Test 2: 16 BALB/c mice, female, with body weights of 16 to 20 g at the time of grouping, were divided into PR-ADC group (CDCP1A12-DL01-MMAE, 134 mg/kg) and conventional ADC group (CDCP1A6-DL01-MMAE, 100 mg/kg) dose group, both at equimolar doses, with 8 mice in each group (4 for toxicology + 4 for TK), for a total of 2 groups. A single dose was administered, with a dosing volume of 10 mL/kg. The drug-related toxic effects in BALB/c mice for each group were investigated and compared through aspects such as death, clinical observation, body weight, and toxicokinetic detection. The experiment lasted for 14 days.
# (§3) 18 BALB/c mice, female, with body weights of 16 to 19 g at the time of grouping, were divided into a PR-ADC group (Nectin4A14-DL01-MMAE, 136 mg/kg) and a conventional ADC group (EV, 100 mg/kg), both at equimolar doses, with 9 mice in each group (5 for toxicology + 4 for TK), for a total of 2 groups.
# [2] = Toxicokinetics of free MMAE in serum (Hybrid LBA LC-MS/MS); format: in vivo; settings: BALB/c mice, Nectin4A14-DL01-MMAE 136 mg/kg vs EV 100 mg/kg
# Method: as §1
# Free MMAE was determined using a Hybrid LBA LC-MS/MS method. Protein A/G-Beads were used to separate the ADC/PR-ADC, MMAE-bound PR-ADC, and MMAE-bound anti-MMAE antibodies from the serum. The remaining samples were subjected to protein precipitation and then tested for free MMAE using the LC-MS/MS method. Table 34. Toxicity test results of animals in each group
# as §2
# Free MMAE was also determined using the Hybrid LBALC-MS/MS method. Table 36. Toxicity test results of animals in each group
# as §3
# Free MMAE was also determined using the Hybrid LBA LC-MS/MS method. Table 38. […]
# [3] = test system: human bladder cancer cell HT-1376 subcutaneous xenograft; assay: Efficacy in subcutaneous xenograft model; format: in vivo, BALB/c-nu mice; settings: equimolar doses
# Method: Human bladder cancer cells HT-1376 were expanded and cultured, and then subcutaneously inoculated into the right forelimb axilla near the back of BALB/c-nu mice (GemPharmatech, female). Tumor growth was observed. When the tumor volume reached about 90 to 200 mm^3, the mice were randomized into groups based on tumor volume and administered with drugs.
# The day of administration was designated as D0. During the experiment, tumor long diameter, short diameter, and body weight were measured twice a week, accompanied by observation of clinical symptoms. At the endpoint of the experiment, the experimental mice were euthanized.
substance,measurement,setting,value
Enfortumab vedotin [EV],Top OD450,Nectin-4,1.23
same,IC50,HCC1954,148 nM
same,MIR (%),HCC1954,70.90%
same,IC50,OVCAR3,33.3 nM
same,MIR (%),OVCAR3,60.27%
same,MIR (%),CHOK1,17.40%
same,Clinical Observation,[1]; Nectin4A14-DL01-MMAE 136 mg/kg vs EV 100 mg/kg,"Piloerection (4/4), Hunched posture (5/5), Squinting eyes (5/5), Lethargy (1/5)"
same,Death,[1]; Nectin4A14-DL01-MMAE 136 mg/kg vs EV 100 mg/kg (equimolar),2/9
same,Max Body Weight Change Rate,"[1]; Nectin4A14-DL01-MMAE 136 mg/kg vs EV 100 mg/kg, day in brackets in the cell",-24.4% (D7)
same,tolerance,[1]; Nectin-4 comparison,less than 100 mg/kg
same,Free MMAE AUC,[2],9.09097 ± 0.65517 µM·h
same,Free MMAE Cmax,[2],76.08 ± 4.88 nM
same,Free MMAE Tmax,[2],24 h
same,TGI,[3],71%
